From patent US20080286287A1 (MURDOCH CHILDRENS RESEARCH INSTITUTE, published 2008) come the findings set out here.

Assay [1] deals with T1, Human-IGF-I (human, UniProt P05019 49-118).
T1 construct: also called IGF-1
The experiment in a line: competitive radioligand binding in solution (125I-IGF-I vs unlabeled IGF-I), immunoprecipitation with anti-IGFBP-2, one-site fit. From the text:
(§1) Table 4 tabulates data showing the effect of mutagenesis on the affinity of IGFBP-2 for the IGFs. The HBD, ₁₇₉PKKLRP₁₈₄, was mutated to ₁₇₉PNNLAP₁₈₄ and the ₂₆₅RGD₂₆₇ domain was mutated to ₂₆₅RGE₂₆₇. Native and mutant IGFBP-2 were purified by IGF-I affinity chromatography and quantified by an IGFBP-2 ELISA or radioimmuno assay (RIA) as described in the Examples. IGF binding affinities of the modified IGFBP-2 mutants were similar to those of native IGFBP-2.
(§2) The impact of these exemplary mutations in IGFBP-2 were tested to see if they affected IGF binding affinity. Native, HBD and RGD-IGFBP-2 (all 2.5 ng) were incubated with either ¹²⁵I-IGF-I or -II (15,000 cpm) in the presence of increasing concentrations of unlabeled IGF-I or -II (0.0025-0.15 nM). Binding was for 2 h at room temperature in 100 μl binding buffer [BB; 50 mM sodium phosphate pH 7.4, 0.1 M NaCl, 0.05% (w/v) NaN3, 0.2% fatty acid free BSA (Sigma, Steinheim, Germany), 0.1% (v/v) Triton X-100]. […] Bound radioactivity in precipitates was quantified in a γ-counter. Each point was measured in quadruplicate. […]

Assay [2] addresses T2, IGF-II (UniProt P01344 25-91).
T2 construct: also called unlabeled IGF-II
In words: competitive radioligand binding in solution (125I-IGF-II vs unlabeled IGF-II), immunoprecipitation with anti-IGFBP-2, one-site fit.
Source text: as §1, §2

T1 sequence (P05019 49-118 limits assumed): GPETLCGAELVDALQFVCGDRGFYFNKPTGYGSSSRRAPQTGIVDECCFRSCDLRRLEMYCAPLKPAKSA
T2 sequence (P01344 25-91 limits assumed): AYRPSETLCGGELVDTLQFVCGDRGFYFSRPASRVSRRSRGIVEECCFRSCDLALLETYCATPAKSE

B1: HBD-IGFBP-2 mutant (179PKKLRP184 mutated to 179PNNLAP184) (other)
chain: EVLFRCPPCTPERLAACGPPPVAPPAAVAAVAGGARMPCAELVREPGCGCCSVCARLEGEACGVYTPRCGQGLRCYPHPGSELPLQALVMGEGTCEKRRDAEYGASPEQVADNGDDHSEGGLVENHVDSTMNMLGGGGSAGRKPLKSGMKELAVFREKVTEQHRQMGKGGKHHLGLEEPNNLAPPPARTPCQQELDQVLERISTMRLPDERGPLEHLYSLHIPNCDKHGLYNLKQCKMSLNGQRGECWCVNPNTGKLIQGAPTIRGDPECHLFYNEQQEARGVHTQRMQ
notes: Positions are as printed; also called HBD modified IGFBP-2; PCS3
The term Kd denotes the free concentration of one partner at which half of the binding sites on the other are occupied at equilibrium, for simple one-to-one binding. Higher therefore signals lower affinity. As for B1, the Kd was found to be 1.45 nM in assay [1] and 0.52 nM in assay [2].
